Laboratory results from US20060257904A1.

Biological target: human recombinant prion protein (hrPrP), amino acid residues 23-231 of human PrPC (human) (UniProt P04156)
Experiment: cell-based or functional assay

Substance: α-2 macroglobulin (α2M), purified preparation
- protection of PrP from PK degradation: 4 µg
- protection of PrP from PK degradation in a mixture with tubulin: 16 µg
- protection of PrP from PK proteolysis (immunoblot with mAb 34C9): 5 µg
- protection of rhuPrP from PK degradation, dose dependence: > 6 µg
